Laboratory results published in publication PMC4947154, “Structural basis of transcobalamin recognition by human CD320 receptor” (Nature Communications, 2016).

T1: CD320 extracellular domain, residues 53-199 (crystallization construct) (human, UniProt Q9NPF0 53-199)
T1 construct: CD320 (transcobalamin receptor), human, residues 53-199 of the extracellular domain; native secretion signal replaced with a Melittin secretion signal; Density seen for LDLR-A1 residues 53-89 and LDLR-A2 residues 129-171; none for the EGF-like domain (90-128); also called N-terminal 22 amino acid deletion of the receptor; not shown: His9, N-terminal, cleaved; MBP, N-terminal, cleaved
T1 sequence (looked up): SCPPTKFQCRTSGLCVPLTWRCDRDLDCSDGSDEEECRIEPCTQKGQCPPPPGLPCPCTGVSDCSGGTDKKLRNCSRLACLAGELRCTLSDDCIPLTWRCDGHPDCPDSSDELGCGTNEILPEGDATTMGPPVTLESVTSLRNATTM

B1: MBP-tagged, biotinylated CD320 LDLR-A2 domain (residues 125-199, Avi Tag) (domain or fragment)
chain: not shown
modifications: biotin on the Avi Tag (BirA)
notes: CD320, human, LDLR type A domain 2 construct, residues 125-199; source: Sf21 insect cells (Multibac baculovirus), secreted, purified (Ni-NTA, no MBP cleavage), biotinylated with BirA; not shown: His9, N-terminal, kept; MBP, N-terminal, kept
B2: human transcobalamin (holo-TC, cyanocobalamin-bound) (natural protein, UniProt P20062 19-427, looked up)
chain: EMCEIPEMDSHLVEKLGQHLLPWMDRLSLEHLNPSIYVGLRLSSLQAGTKEDLYLHSLKLGYQQCLLGSAFSEDDGDCQGKPSMGQLALYLLALRANCEFVRGHKGDRLVSQLKWFLEDEKRAIGHDHKGHPHTSYYQYGLGILALCLHQKRVHDSVVDKLLYAVEPFHQGHHSVDTAAMAGLAFTCLKRSNFNPGRRQRITMAIRTVQEEILKAQTPEGHFGNVYSTPLALQFLMTSPMRGAELGTACLKARVALLASLQDGAFQNALMISQLLPVLNHKTYIDLIFPDCLAPRVMLEPAAETIPQTQEIISVTLQVLSLLPPYRQSISVLAGSTVEDVLKKAHELGGFTYETQASLSGPYLTSVMGKAAGEREFWQLLRDPNTPLLQGIADYRPKDGETIELRLVSW
notes: transcobalamin (TC), human, residues 1-409, cDNA GenBank BC001176.1 harbouring R209Q; native secretion signal replaced with a Melittin secretion signal; Purified in the presence of excess cyanocobalamin (Cbl-CN), so the Cbl site is occupied; R209Q came with the bought cDNA clone (ImaGenes); also called tag-less TC; full-length TC; source: Sf21 insect cells (Multibac baculovirus), secreted, …

Columns and labels:
[1] = biological target: B2; assay: ELISA; solid-phase binding assay: biotinylated MBP-tagged receptor on Neutravidin plates, tag-less TC serially diluted in 20 mM Tris pH 7.5, 0.5 mM CaCl2, 150 mM NaCl, 0.05% Tween-20, 1 h RT; TC detected with antibody A-5; single-site fit, n=5; conditions: both partners purified
[2] = biological target: T1, CD320 extracellular domain, residues …; assay: crystal structure; co-crystals of the purified complex, sitting drop, 20 °C; conditions: both partners purified

Row | Binder | Kd [1] [nM] | stoichiometry N [2]
1 | B1 | ~10 | 
2 | B2 |  | 1 TC:CD320
